Patent publication US20170137467A1 (CHROMOTEK, published 2017)
Square brackets hold non-standard residues; d marks the D form. GABA = NCCCC(=O)O

Assays:
Test in all cases: peptide library pulldown on immobilized Nb, LC-MS of supernatant; ratio vs GFP-Nb control (1 = not captured, 0 = captured)
BC2T H9Y library peptide = target: T1, BC2T H9Y library peptide (human)
T1 peptide: Ac-PDRKAAVSYWQQ-NH2
Summary of the method: (§1)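 Unbound peptide left in supernatant after 1 h pulldown in PBS/0.01% CHAPS measured by reversed-phase LC-MS (8–30% eluent B gradient, 20 min).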

BC2T H9W library peptide = target: T2, BC2T H9W library peptide (human)
T2 peptide: Ac-PDRKAAVSWWQQ-NH2
Summary of the method: as §1

[1] = target: T3, BC2T Q12(I/L) library peptide, version 2 (N-terminal acetyl, C-terminal amide)
T3 construct: Ile and Leu versions are isobaric; two versions resolved but not assigned; also called I/L2
Summary of the method: as §1

[2] = target: T4, BC2T W10N library peptide (human)
T4 construct: also called BC2TW10X: N
T4 peptide: Ac-PDRKAAVSHNQQ-NH2
Summary of the method: as §1

[3] = target: T5, BC2T Q11C* library peptide (human, SMILES …)
T5 construct: also called C(Abu)
T5 peptide: Ac-PDRKAAVSHW[GABA]Q-NH2
Summary of the method: as §1

BC2T H9N library peptide = target: T6, BC2T H9N library peptide (human)
T6 peptide: Ac-PDRKAAVSNWQQ-NH2
Summary of the method: as §1

BC2T H9V library peptide = target: T7, BC2T H9V library peptide (human)
T7 peptide: Ac-PDRKAAVSVWQQ-NH2
Summary of the method: as §1

BC2T H9D library peptide = target: T8, BC2T H9D library peptide (human)
T8 peptide: Ac-PDRKAAVSDWQQ-NH2
Summary of the method: as §1

[4] = target: T9, BC2T Q12F library peptide (human)
T9 peptide: Ac-PDRKAAVSHWQF-NH2
Summary of the method: as §1

[5] = target: T10, BC2T Q11S library peptide (human)
T10 peptide: Ac-PDRKAAVSHWSQ-NH2
Summary of the method: as §1

BC2T S8D library peptide = target: T11, BC2T S8D library peptide (human)
T11 construct: also called BC2TS8X: D
T11 peptide: Ac-PDRKAAVDHWQQ-NH2
Summary of the method: as §1

BC2T H9T library peptide = target: T12, BC2T H9T library peptide (human)
T12 peptide: Ac-PDRKAAVSTWQQ-NH2
Summary of the method: as §1

BC2T H9A library peptide = target: T13, BC2T H9A library peptide (human)
T13 peptide: Ac-PDRKAAVSAWQQ-NH2
Summary of the method: as §1

[6] = target: T14, BC2T Q11R library peptide (human)
T14 peptide: Ac-PDRKAAVSHWRQ-NH2
Summary of the method: as §1

BC2T S8F library peptide = target: T15, BC2T S8F library peptide (human)
T15 construct: also called BC2TS8X: F
T15 peptide: Ac-PDRKAAVFHWQQ-NH2
Summary of the method: as §1

[7] = target: T16, BC2T Q11H library peptide (human)
T16 peptide: Ac-PDRKAAVSHWHQ-NH2
Summary of the method: as §1

[8] = target: T17, BC2T Q12Y library peptide (human)
T17 peptide: Ac-PDRKAAVSHWQY-NH2
Summary of the method: as §1

[9] = target: T18, BC2T Q12H library peptide (human)
T18 peptide: Ac-PDRKAAVSHWQH-NH2
Summary of the method: as §1

BC2T S8N library peptide = target: T19, BC2T S8N library peptide (human)
T19 construct: also called BC2TS8X: N
T19 peptide: Ac-PDRKAAVNHWQQ-NH2
Summary of the method: as §1

[10] = target: T20, BC2T W10C* library peptide (human, SMILES …)
T20 construct: also called BC2TW10X: C*; C(Abu)
T20 peptide: Ac-PDRKAAVSH[GABA]QQ-NH2
Summary of the method: as §1

B1: BC2-Nb(R106E) (VHH)
VHH: QVQLVESGGGLVQPGGSLTLSCTASGFTLDHYDIGWFRQAPGKEREGVSCINNSDDDTYYADSVKGRFTIFMDNAKDTVYLQMNSLKPEDTAIYYCAEARGCKRGEYEYDFWGQGTQVTVSS
notes: Headlock mutant; immobilized on beads in the library pulldown
BC2T H9Y library peptide
  ratio: 0.1
BC2T H9W library peptide
  ratio: 0.1
[1]
  ratio: 0.1
[2]
  ratio: 1.2
[3]
  ratio: 0.2
BC2T H9N library peptide
  ratio: 0.2
BC2T H9V library peptide
  ratio: 0.5
BC2T H9D library peptide
  ratio: 0.4
[4]
  ratio: 0.3
[5]
  ratio: 0.2
BC2T S8D library peptide
  ratio: 1
BC2T H9T library peptide
  ratio: 0.4
BC2T H9A library peptide
  ratio: 0.3
[6]
  ratio: 0.1
BC2T S8F library peptide
  ratio: 0.9
[7]
  ratio: 0.2
[8]
  ratio: 0.2
[9]
  ratio: 0.1
BC2T S8N library peptide
  ratio: 0.5
[10]
  ratio: 1.1
